Measured values as given in patent US20260125454A1 (SHANGHAI JUNSHI BIOSCIENCES, published 2026).
Numbering of substitutions follows the chain as printed. Read-outs that look alike come from different tables or passages of the source. Bridges are numbered along the chain shown (N, C = ends). Where no end group is shown, it is not given here. The star is where a group is joined. Biotin = O=C1N[C@H]2[C@H](CS[C@H]2CCCCC(=O)*)N1

B1: hu224 Fab (Fab, V domains shown)
VH: QVQLVQSGAEVKKPGASVKVSCKASGYSFTGYTMNWVRQAPGQRLEWMGLINPYIGNTHYNQKFKDRVTFTVDRSSSTAYMELSSLRSEDTAVYYCARELDSGFDYWGQGTLVTVSS
VL: DVVMTQSPDSLAVSLGERATINCRSSQNIVHSNGDTYLEWYQQKPGQPPKLLIYKVSNRFSGVPDRFSGSGSGTDFTLTISSLQAEDVAVYYCYQGSHVPWTFGQGTKLEIK
notes: also called Fab monomer fragments derived from humanized antibody hu224
B2: C258 (antibody, V domains shown)
VH: EVQLQQSGPELVKPGASVKISCKTSGYTFTDYNMHWVKQSHGKSLEWIGYISPYNGGTAYNQKFKFKSTLTVDTSSSTAYMELRSLTSEDSAVYYCAREGLGGYWGQGTTLTVSS
VL: DIVLTQSPASLAVSLGQRATISCKASQNIDFDGYAYMNWYQHKPGQPPRVLIYSVFNLESGIPARFSGSGSGTDFTLNIHPVEEEDAATYYCQQSHEVPYTFGGGTNLEIK
notes: 3E5-HC + 1F5-LC1; chimeric, human constant regions
B3: C97 (antibody, V domains shown)
VH: B2 VH with T24A, I51V, S52Y, T58S, F66S, S68A, T78I, E82D, R84H, T112A
VL: B2 VL
notes: 2A2-HC + 1F5-LC1; chimeric, human constant regions
B4: C85 (antibody, V domains shown)
VH: EVQLQQSGPELVKPGASVKISCKTSGYTFIDFNMHWVKQSHGKSLEWIGYIYPYNGDVVYNQNFTNKATLTVDSSSSTAYMELRRVTSEDSAIYYCAREGLGGYWGQGTTLTVSS
VL: B2 VL with F31Y, A35T, M37L, H42Q, R49K, V55I, H96N, N107K
notes: 1F5-HC + 3E5-LC; chimeric, human constant regions
B5: C120 (antibody, V domains shown)
VH: B2 VH with T24A, Y50N, S52Y, A59V, K65N, F66N, S68A, D73H, E82D, E89D
VL: B2 VL
notes: 2B8-HC1 + 1F5-LC1; chimeric, human constant regions
B6: C255 (antibody, V domains shown)
VH: B2 VH
VL: B2 VL with F31Y, M37L, H42Q, R49K, H96N, V98F, N107K, I110V
notes: 3E5-HC + 1A2-LC2; chimeric, human constant regions
B7: C92 (antibody, V domains shown)
VH: B4 VH
VL: DIVLTQSPDSLAVSLGQRATISCKASQNIDYGGYSYMNWYQQKPGQPPKVLIYSVFNLESGIPARFSGSGSGTDFTLTIHPVEEEDAATYYCQQSNEAPYTFGGGTKLEIR
notes: 1F5-HC + 3H10-LC2; chimeric, human constant regions
B8: C235 (antibody, V domains shown)
VH: EVQLQQSGPELVKPGASMKISCKASGYSFTGYTMNWVKQSHGNNLEWIGLINPYIGNTHYNQKFKDKATFTVDRSSSTAYMALLSLTSEDSAVYYCARELDSGFDYWGQGTTLTVSS
VL: B2 VL
notes: 3C1-HC + 1F5-LC1; chimeric, human constant regions
B9: C347 (antibody, V domains shown)
VH: EVQLQQSGPELVQPGASVKISCKASGYTFTDYNMHWVKQSHGESLEWIGYIYPYNGHTVYNQKFRNKATMTVDSSSSTAYMDLRSLTSEDSAVYYCAKEGLGGYWGQGTTLTVSS
VL: B2 VL with F31Y, M37L, H42Q, R49K, H96N, V98F, N107K, I110V
notes: 3H10-HC + 1A2-LC2; chimeric, human constant regions

Assays:
[1] = target: T1, hCGRP(1-19) (human, N-terminal biotin; CYS residues at positions 7 and 12 theoretically form 1 intrachain disulfide bond); assay: BLI (Octet), biotin-peptide on SA probe, 45 nM Fab
T1 construct: also called polypeptide 1-19
T1 peptide: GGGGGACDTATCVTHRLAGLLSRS
Description: (§1) The kinetic parameters of C245 Fab (Fab monomer fragments derived from antibody C245) binding to six synthetic human CGRP alpha polypeptide fragments (polypeptide 1-13, polypeptide 1-19, polypeptide 1-37, polypeptide 8-19, polypeptide 8-26, and polypeptide 13-24) were determined on an Octet RBD 96e system. Human CGRP synthetic polypeptide fragments were immobilized on the surfaces of SA bioprobes (Sartorius, Cat. No. 18-5019) at the following concentrations: 46.5 nM for hCGRP (1-13), 8.5 nM for CGRP (1-19), 15.5 nM for hCGRP (1-37), 8.5 nM for hCGRP (8-19), 15.5 nM for hCGRP (8-26), and 46.5 nM for hCGRP (13-24). The immobilized synthetic human CGRP polypeptide fragments were bound to 45 nM of C245 Fab and the binding dissociation curves were fitted using analytical software.
(§2) The kinetic parameters of hu224 Fab (Fab monomer fragments derived from humanized antibody hu224) binding to four synthetic human CGRP alpha polypeptide fragments (polypeptide 1-13, polypeptide 1-19, polypeptide 1-37, and polypeptide 8-19) were determined on an Octet RBD 96e system. Human CGRP synthetic polypeptide fragments were immobilized on the surfaces of SA bioprobes (Sartorius, Cat. No. 18-5019) at the following concentrations: 8.5 nM for CGRP (1-19), 15.5 nM for hCGRP (1-37), 10 nM for hCGRP (8-19), and 15.5 nM for hCGRP (8-26). The immobilized synthetic human CGRP polypeptide fragments were bound to 45 nM of hu224 Fab and the binding dissociation curves were fitted using analytical software.

[2] = target: T2, hCGRP(1-37) (human, N-terminal biotin; C-terminal phenylalanine amide (F-NH2); CYS residues at positions 7 and 12 theoretically form 1 intrachain disulfide bond); assay: BLI (Octet), biotin-peptide on SA probe, 45 nM Fab
T2 construct: also called polypeptide 1-37; full-length hCGRP (1-37) polypeptide
T2 peptide: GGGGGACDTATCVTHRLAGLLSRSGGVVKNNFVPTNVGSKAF
Description: as §1, §2

[3] = target: T3, hCGRP(8-26) (human, N-terminal biotin); assay: BLI (Octet), biotin-peptide on SA probe, 45 nM Fab
T3 construct: also called polypeptide 8-26
T3 peptide: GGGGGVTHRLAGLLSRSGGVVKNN
Description: as §1, §2

[4] = target: T4, hCGRP(8-19) (human); assay: BLI (Octet), biotin-peptide on SA probe, 45 nM Fab
T4 construct: also called polypeptide 8-19
T4 peptide: Biotin-GGGGGVTHRLAGLLSRS
Description: as §1, §2

[5] = target: T5, Biotin-huCGRPaSA (human, not fully specified; biotin (position not given)); assay: ELISA, transfection supernatant, biotin-CGRP on streptavidin
T5 construct: exact construct ('aSA') not explained; also called Biotin CGRPaSA; full-length (1-37) CGRP
T5 peptide: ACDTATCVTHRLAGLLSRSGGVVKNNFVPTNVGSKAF
Description: Streptavidin was diluted to 0.5 μg/mL by using PBS (Hyclone) and added into a plate at 100 μL/well. The plate was incubated in a thermostat incubator at 37° C. for 90 min and then washed. 2% BSA was added to the plate at 200 μL/well, and the plate was incubated in the thermostat incubator at 37° C. for 90 min and washed. Biotin-huCGRPaSA was diluted to 2.0 μg/mL with 2% BSA and added into the plate at 100 μL/well, and the plate was incubated in the thermostat incubator at 37° C. for 60 min. The reference antibody (47-RM) was diluted to 2500 ng/ml with a diluent (2% BSA) and serially 4-fold diluted to 0.15 ng/mL, and the chimeric antibodies were diluted with a cell supernatant stock solution. All the chimeric antibody solutions and the reference antibody solution were added into plates at 80 μL/well, and the plates were incubated in a thermostat incubator at 37° C. for 60 min and washed. An HRP-conjugated mouse anti-human antibody IgG4 (manufacturer: Southern Biotech, Cat. No. 9200-05; Fc specificity) was diluted 5000-fold with 2% BSA and added into the plates at 100 μL/well, and the plates were incubated in the thermostat incubator at 37° C. for 60 min and washed. 0.1 mg/mL chromogenic reagent TMB was carefully added at 100 μL/well to avoid bubbles, and the system was incubated at 37° C. for 10 min away from light for chromogenic reaction. Finally, a 2 M hydrochloric acid solution was added at 100 μL/well to stop the reaction while avoiding bubbles, and the plates were read on a microplate reader within 10 min (the detection wavelength was 450 nm; the reference wavelength was 620 nm).

[6] = target: T5, Biotin-huCGRPaSA; assay: ELISA, purified antibody; relative to reference 47-RM-20190815
Description: Streptavidin was diluted to […] by using PBS (Hyclone) and added into a plate at 100 μL/well. The plate was incubated in a thermostat incubator at 37° C. for 90 min and then washed. 2% BSA was added to the plate at 200 μL/well, and the plate was incubated in the thermostat incubator at 37° C. for 90 min and washed. Biotin-huCGRPaSA was diluted to 2.0 μg/mL with 2% BSA and added into the plate at 100 μL/well, and the plate was incubated in the thermostat incubator at 37° C. for 60 min. The chimeric antibodies in Table 3 and reference antibody (47-RM-20190815) were diluted to 1000 ng/ml with a diluent (2% BSA) and serially 10-fold diluted to 1 ng/mL. All the chimeric antibody solutions and the reference antibody solution were added into plates at 100 μL/well, and the plates were incubated in a thermostat incubator at 37° C. for 60 min and washed. An HRP-conjugated mouse anti-human antibody IgG4 (manufacturer: Southern Biotech, Cat. No. 9200-05; Fc specificity) was diluted 5000-fold with 2% BSA and added into the plates at 100 μL/well, and the plates were incubated in the thermostat incubator at 37° C. for 60 min and washed. 0.1 mg/mL chromogenic reagent TMB was carefully added at 100 μL/well to avoid bubbles, and the system was incubated at 37° C. for 5 min away from light for chromogenic reaction. Finally, a 2 M hydrochloric acid solution was added at 100 μL/well to stop the reaction while avoiding bubbles, and the plates were read on a microplate reader within 10 min (the detection wavelength was 450 nm; the reference wavelength was 620 nm). EC₅₀ was fit by using a four-parameter logistic regression (4PL) model.

[7] = target: CGRP antigen; assay: cell-based or functional assay
[8] = target: CGRP antigen; assay: cell-based or functional assay; remark: listed apart in the source
[9] = target: T6, Biotin-1-19 polypeptide (human, disulfide 2-7; not fully specified (N-terminus); printed as Biotin-Linker(G5)-ACDTATCVTHRLAGLLSRS; ends not checked; also: biotin, position not given here); assay: ELISA, transfection supernatant, biotin-CGRP(1-19) on streptavidin
T6 construct: also called fragment CGRP (1-19); truncated (1-19) CGRP
T6 peptide: ACDTATCVTHRLAGLLSRS
Description: Streptavidin was diluted to 0.5 μg/mL by using PBS (Hyclone) and added into a plate at 100 μL/well. The plate was incubated in a thermostat incubator at 37° C. for 90 min and then washed. 2% BSA was added to the plate at 200 μL/well, and the plate was incubated in the thermostat incubator at 37° C. for 90 min and washed. Biotin-1-19 polypeptide was diluted to 2.0 μg/mL with 2% BSA and added into the plate at 100 μL/well, and the plate was incubated in the thermostat incubator at 37° C. for 60 min. The reference antibody (Lily) was diluted to 2500 ng/ml with a diluent (2% BSA) and then serially 4-fold diluted to 0.15 ng/ml. For chimeric antibodies, the stock solution was diluted. All the chimeric antibody solutions and the reference antibody solution were added into plates at 80 μL/well, and the plates were incubated in a thermostat incubator at 37° C. for 60 min and washed. An HRP-conjugated mouse anti-human antibody IgG4 (manufacturer: Southern Biotech, Cat. No. 9200-05; Fc specificity) was diluted 5000-fold with 2% BSA and added into the plates at 100 µL/well, and the plates were incubated in the thermostat incubator at 37° C. for 60 min and washed. 0.1 mg/mL chromogenic reagent TMB was carefully added at 100 μL/well to avoid bubbles, and the system was incubated at 37° C. for 10 min away from light for chromogenic reaction. Finally, a 2 M hydrochloric acid solution was added at 100 μL/well to stop the reaction while avoiding bubbles, and the plates were read on a microplate reader within 10 min (the detection wavelength was 450 nm; the reference wavelength was 620 nm).

Binder | OD value [5] [OD] | Relative activity (%) [6] [%] | Relative binding activity (%) vs Ref(Teva) [7] [%] | other results
B1 |  |  |  | Kd [1]: 82.3 pM; koff [1]: 2.62e-05 s⁻¹; kon [1]: 318000 M⁻¹ s⁻¹; Kd [2]: 288 pM; koff [2]: 7.97e-05 s⁻¹; kon [2]: 277000 M⁻¹ s⁻¹; Kd [3]: 1180 pM; koff [3]: 0.000374 s⁻¹; kon [3]: 316000 M⁻¹ s⁻¹; Kd [4]: 445 pM; koff [4]: 0.000151 s⁻¹; kon [4]: 341000 M⁻¹ s⁻¹
B2 | 3.12 | 99.8 | 117 | 
B3 | 3.03 | 41.9 |  | Relative binding activity (%) vs Ref(Teva) [8]: 98.4%
B4 | 3.11 | 56.7 | 111 | 
B5 | 3.09 | 30.6 | 50.3 | 
B6 | 3.11 | 108 | 74.9 | 
B7 | 3.09 | 68.5 | 108 | 
B8 |  |  |  | OD value [9]: 2.84 OD
B9 | 3.01 | 91.4 | 87.6 | 
